Measurements from publication PMC2132825 (The Journal of Cell Biology, 1998).

Target: T1, purified recombinant mouse PKCζ (mouse, UniProt Q02956 1-592)
T1 sequence (looked up): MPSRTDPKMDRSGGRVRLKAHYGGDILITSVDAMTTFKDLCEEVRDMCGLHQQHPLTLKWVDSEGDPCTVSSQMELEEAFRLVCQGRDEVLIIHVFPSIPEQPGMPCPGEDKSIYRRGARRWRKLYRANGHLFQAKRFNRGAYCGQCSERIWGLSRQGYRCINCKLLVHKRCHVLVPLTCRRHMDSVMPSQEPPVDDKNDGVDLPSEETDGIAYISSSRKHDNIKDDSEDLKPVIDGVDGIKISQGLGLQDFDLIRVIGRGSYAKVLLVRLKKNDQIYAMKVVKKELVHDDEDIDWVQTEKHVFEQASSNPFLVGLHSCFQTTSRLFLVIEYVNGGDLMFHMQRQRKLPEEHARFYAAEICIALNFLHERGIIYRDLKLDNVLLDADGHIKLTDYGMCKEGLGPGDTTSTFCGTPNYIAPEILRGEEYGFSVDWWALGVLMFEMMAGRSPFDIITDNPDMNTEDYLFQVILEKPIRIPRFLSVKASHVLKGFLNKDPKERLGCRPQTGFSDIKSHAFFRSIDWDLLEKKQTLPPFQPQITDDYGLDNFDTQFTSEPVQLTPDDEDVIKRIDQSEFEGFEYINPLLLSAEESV
Assay: far-Western, overlay or dot blot

- binding result: binds
B1: GST-ASIP 712/936 (domain or fragment, rat, UniProt Q9Z340 712-936, looked up)
chain: RRISHSLYSGIEGLDESPTRNAALSRIMGESGKCQLSPTVNMPHDDTVMIEDDRLPVLPPHLSDQSSSSSHDDVGFIMTEAGTWAKATISDSADCSLSPDVDPVLAFQREGFGRQSMSEKRTKQFSNASQLDFVKTRKSKSMDLGIADETKLNTVDDQRAGSPNRDVGPSLGLKKSSSLESLQTAVAEVTLNGNIPFHRPRPRIIRGRGCNESFRAAIDKSYDKP
